# Results published in patent publication US20120231014A1.
# Assays:
# [1] = target: PTPσ-Fc fusion protein (recombinant mouse PTPσ extracellular domain, short isoform, fused to Fc) (mouse) (UniProt B0V2N1); experiment: cell-free plate assay: PTPσ-Fc on protein A plates, increasing Ncn-AP, bound AP activity, Scatchard analysis
# [2] = target: PTPσ-Fc fusion protein (recombinant mouse PTPσ extracellular domain, short isoform, fused to Fc) (mouse) (UniProt B0V2N1); experiment: cell-free plate assay: PTPσ-Fc on protein A plates, biotinylated aggrecan detected with streptavidin-AP, hyperbolic curve fit
Kd [1],Kd [2],Substance
11 nM,,Ncn-AP fusion protein (mouse neurocan amino acids 1-963 fused to placental alkaline phosphatase) (from UniProt P55066 23-963; P05187 23-511)
,19 nM,biotinylated purified aggrecan (bovine; Sigma) (from UniProt P13608 17-2364)
